27 sequences from the Immune Epitope Database (IEDB) can be followed below.

In one assay the target is HLA-B*35:01. Kind of assay: IEDB peptide-MHC binding, purified MHC/competitive/radioactivity; filed as Kd, often an IC50 or EC50 that approximates it; ≥ and ≤ were set here for values at or beyond the usual limits of such assays.
The target in another assay is HLA-B*53:01. The description is as above.
Assay [1] has as its target HLA-B*08:01. The assay is described as above.
In the next assay the target is HLA-B*51:01. The description is as above.
A further assay has as its target HLA-A*23:01. The description is as above.
Assay [2] deals with HLA-B*08:01. Kind of assay: IEDB peptide-MHC binding, purified MHC/direct/fluorescence; filed as Kd, often an IC50 or EC50 that approximates it; ≥ and ≤ were set here for values at or beyond the usual limits of such assays.
For a further assay, the target named is HLA-A*11:01. Described as above. The settings on record: source organism: SARS-CoV1.
The next assay addresses HLA-B*07:02. Described as above. The following applies: source organism: SARS-CoV1.
The target of the next assay is HLA-B*15:01. Described as above.
A further assay addresses HLA-B*40:01. Described as above. The following applies: source organism: SARS-CoV1.
The target in the next assay is HLA-B*58:01. The description is as above. The settings on record: source organism: SARS-CoV1.
The target of assay [3] is HLA-A*02:01. Kind of assay: IEDB peptide-MHC binding, purified MHC/competitive/radioactivity; filed as Kd, often an IC50 or EC50 that approximates it; ≥ and ≤ were set here for values at or beyond the usual limits of such assays.
The target in another assay is HLA-A*02:03. The description is as above. The following applies: source organism: Vaccinia virus WR.
Another assay has as its target HLA-A*02:06. The assay is described as above. The settings on record: source organism: Vaccinia virus WR.
The target in assay [4] is HLA-A*02:01. Kind of assay: IEDB peptide-MHC binding, purified MHC/direct/fluorescence; filed as Kd, often an IC50 or EC50 that approximates it; ≥ and ≤ were set here for values at or beyond the usual limits of such assays.
For a further assay, the target named is HLA-A*31:01. The description is as above.
The target of the next assay is HLA-A*69:01. The assay is described as above. The following applies: source organism: Salmonella enterica subsp. enterica serovar Typhimurium.
The target in a further assay is HLA-B*27:05. The description is as above. The settings on record: source organism: Tacaribe virus strain V7.
Another assay deals with HLA-A*01:01. Described as above. The following applies: source organism: SARS-CoV1.
A further assay concerns the target HLA-A*03:01. The description is as above. The following applies: source organism: SARS-CoV1.
A further assay deals with HLA-A*24:02. The assay is described as follows: IEDB peptide-MHC binding, purified MHC/competitive/radioactivity; filed as Kd, often an IC50 or EC50 that approximates it; ≥ and ≤ were set here for values at or beyond the usual limits of such assays. The settings on record: source organism: SARS coronavirus Tor2.
A further assay addresses HLA-A*26:01. The assay is described as above. The following applies: source organism: SARS coronavirus Tor2.
The target of the next assay is HLA-A*29:02. Described as above. The following applies: source organism: SARS coronavirus Tor2.
The target in the next assay is HLA-A*30:02. The description is as above. The settings on record: source organism: SARS coronavirus Tor2.
A further assay addresses HLA-B*39:01. The assay is described as follows: IEDB peptide-MHC binding, purified MHC/competitive/fluorescence; filed as Kd, often an IC50 or EC50 that approximates it; ≥ and ≤ were set here for values at or beyond the usual limits of such assays. The following applies: source organism: Escherichia coli str. K-12 substr. MG1655.
The mark [5] stands for this setting: source organism: Dengue virus 1 Brazil/97-11/1997.
Where [6] appears, read: source organism: Dengue virus 2 Jamaica/1409/1983.
[7] abbreviates: source organism: Dengue virus 4 Philippines/H241/1956.
[8] abbreviates: source organism: Vaccinia virus WR.
Where [9] appears, read: source organism: Dengue virus 3 Martinique/1243/1999.
[10] abbreviates: source organism: Salmonella enterica subsp. enterica serovar Typhimurium.

Regarding DPVVYDAKF, the Kd with HLA-B*35:01 (setting [5]) amounted to 959 nM; in the assay with HLA-B*53:01 (setting [5]), 648 nM.
In the case of IPITAAAWYL, the figures for the Kd in the assay with HLA-B*08:01 [1] (setting [6]) and with HLA-B*51:01 (setting [6]) were 3760 nM and 6230 nM, respectively.
Consider MALKDFKEF, for which the dissociation constant Kd stood at 154 nM in the assay with HLA-A*23:01 (setting [7]), 77 nM with HLA-B*35:01 (setting [7]) and 139 nM in the assay with HLA-B*53:01 (setting [7]).
For VKPKGKVVDL, the Kd with HLA-B*08:01 [1] (setting [7]) was determined as 2150 nM.
Same read-out and setting: to INRKGKVIGL belongs 3660 nM.
Regarding YLKWRWLHF, the dissociation constant (Kd) with HLA-B*08:01 [2] (source organism: Burkholderia mallei ATCC 23344) was found to be 2 nM.
As to NQATTKTTF, the Kd with HLA-A*11:01 was no less than 79900 nM; in the assay with HLA-B*07:02, 19800 nM; in the assay with HLA-B*08:01 [2] (source organism: SARS-CoV1), 7150 nM; in the assay with HLA-B*15:01 (source organism: SARS-CoV1), 203 nM; with HLA-B*40:01 it was no less than 57300 nM; with HLA-B*58:01, 9270 nM.
Turning to LMTLKDAML, the Kd in the assay with HLA-A*02:01 [3] (source organism: Lassa virus Josiah) came to 893 nM.
With SIFLIFSII, the dissociation constant (Kd) in the assay with HLA-B*08:01 [1] (source organism: Vaccinia virus Copenhagen) was 858 nM.
For the sequence NMKFKNSVE, the Kd with HLA-B*08:01 [1] (setting [8]) came to 1340 nM.
MVQADSGCVV: in the assay with HLA-B*51:01 (setting [6]), the Kd was no less than 30500 nM.
As for WALCESITL, the dissociation constant Kd with HLA-B*35:01 (setting [5]) was 75.7 nM.
For the sequence SPIINREGKV, in the assay with HLA-B*51:01 (setting [9]), the equilibrium dissociation constant (Kd) was no less than 69600 nM.
For the sequence FLNISWFYI, the dissociation constant (Kd) in the assay with HLA-A*02:01 [3] (setting [8]) was found to be 0.0142 nM; with HLA-A*02:03, 1.1 nM; with HLA-A*02:06 it was 0.667 nM.
With LPAIVREAIK, the Kd with HLA-B*35:01 (setting [6]) was 5500 nM; in the assay with HLA-B*51:01 (setting [6]), no less than 69600 nM; with HLA-B*53:01 (setting [6]) it was 4650 nM.
Consider SIHAHHQWM, for which the Kd in the assay with HLA-B*08:01 [1] (setting [5]) worked out at 349 nM.
Consider IPFSTEDGQG, for which the Kd in the assay with HLA-B*35:01 (setting [9]) stood at 1730 nM.
Consider GMFGGCFAA, for which the Kd was found to be 10 nM in the assay with HLA-A*02:01 [4] (setting [10]), 1220 nM with HLA-A*31:01 (setting [10]), 2770 nM with HLA-A*69:01 and 161 nM with HLA-B*15:01 (setting [10]).
Turning to MPTYKHLIM, in the assay with HLA-B*08:01 [1] (setting [8]), the dissociation constant Kd came to 0.13 nM.
As for SIRYRQRLI, in the assay with HLA-B*08:01 [1] (setting [8]), the dissociation constant (Kd) stood at 218 nM.
On to IRELMSVPY, for which the Kd in the assay with HLA-B*27:05 is no less than 20000 nM.
With GPLVAGGLLI, the Kd with HLA-B*51:01 (setting [9]) turned out to be 6030 nM.
In the case of FMGRIRSVY, the Kd with HLA-A*01:01 was 5870 nM; in the assay with HLA-A*02:01 [4] (source organism: SARS-CoV1), 9160 nM; with HLA-A*03:01, 2340 nM; with HLA-A*11:01 it was 18200 nM; with HLA-A*31:01 (source organism: SARS-CoV1), 123 nM; with HLA-B*08:01 [2] (source organism: SARS-CoV1), 604 nM. Moreover, the Kd is 393 nM with HLA-B*15:01 (source organism: SARS-CoV1); 6000 nM with HLA-B*58:01; no less than 77800 nM with HLA-A*23:01 (source organism: SARS coronavirus Tor2); no less than 55900 nM with HLA-A*24:02; 2240 nM in the assay with HLA-A*26:01; 1.7 nM with HLA-A*29:02. Moreover, the dissociation constant Kd with HLA-A*30:02 was found to be 0.157 nM.
Consider EAKRKLTEL, for which the Kd in the assay with HLA-B*08:01 [1] (setting [8]) worked out at 2.45 nM.
For FHNDSTPRY, the Kd in the assay with HLA-B*39:01 was 3470 nM.
SIVSPFIPLL: the dissociation constant Kd with HLA-A*02:01 [3] (source organism: Hepatitis B virus) is no less than 25000 nM.
With LPESLETLM, the Kd in the assay with HLA-B*35:01 (setting [7]) was 470 nM; with HLA-B*51:01 (setting [7]) it was 2450 nM; in the assay with HLA-B*53:01 (setting [7]), 557 nM.
